This note sets out measurements from patent US20130224779A1, “METHOD FOR LARGE SCALE PREPARATION OF THE ACTIVE DOMAIN OF HUMAN PROTEIN TYROSINE PHOSPHATASE WITHOUT FUSION PROTEIN” (Korea Research Institute of Bioscience and Biotechnology, priority 2007, published 2013).

Data set [1] in a line: Protease (trypsin or chymotrypsin) digestion of PTP active domain, SDS-PAGE. The format is physicochemical. As to conditions: 37° C., 30 minutes, SDS-PAGE (FIG. 8). As for the experimental part: Based on the result of Example <1-3-1>, 20 μg of PTP active domain having low solubility and stability was serially diluted from 1:1 to 1:1,000, followed by reaction with trypsin (Sigma, USA) or chymotrypsin (Sigma, USA) at 37° C. for 30 minutes. SDS-PAGE was performed by the same manner as described in Example 3 to confirm digestion.

Data set [2] in a line: Solubility and stability of expressed domain by SDS-PAGE of supernatant and precipitate. The format is physicochemical. As to conditions: expressed in E. coli, SDS-PAGE (FIG. 9). The method, then: After cloning the PTP active domain determined in Example <1-2>, it was expressed in E. coli and purified therefrom. After storing for a while, a proper amount of protein solution was ultra-centrifuged to separate supernatant and precipitate. SDS-PAGE was performed with the precipitate by the same manner as described in Example 3 to investigate whether the precipitate contained the target protein, leading to the examination of solubility.
The protein band cut by protease obtained in Example <1-3-2> was transferred to PVDF membrane. The band was cut and treated with a reagent recognizing and digesting N-terminal, followed by HPLC stepwise to arrange amino acids. Mass spectrometry was performed with the band to calculate the mass exactly and select stable domains. The re-designed domains were tested for activity and stability by the same manner as described in Example 4.

B1: T38: recombinant PTP active domain; unstable domain 636-979, stable domain 709-979, SEQ. ID. NO: 120 (protein)
chain: LAKEWQALCAYQAEPNTCATAQGEGNIKKNRHPDFLPYDHARIKLKVESSPSRSDYINASPIIEHDPRMPAYIATQGPLSHTIADFWQMVWESGCTVIVMLTPLVEDGVKQCDRYWPDEGASLYHVYEVNLVSEHIWCEDFLVRSFYLKNVQTQETRTLTQFHFLSWPAEGTPASTRPLLDFRRKVNKCYRGRSCPIIVHCSDGAGRTGTYILIDMVLNRMAKGVKEIDIAATLEHVRDQRPGLVRSKDQFEFALTAVAEEVNAILKALP
modifications: Amino acid sequence of PTP active domain T38
As for B1, in data set [1], the “stability with increase of protease concentration” value is reported as “maintained”.

B2: full length pk7: full length pk7 (MKP2), unstable domain amino acids 1-394 (protein, UniProt Q13115 1-394, looked up)
chain: MVTMEELREMDCSVLKRLMNRDENGGGAGGSGSHGTLGLPSGGKCLLLDCRPFLAHSAGYILGSVNVRCNTIVRRRAKGSVSLEQILPAEEEVRARLRSGLYSAVIVYDERSPRAESLREDSTVSLVVQALRRNAERTDICLLKGGYERFSSEYPEFCSKTKALAAIPPPVPPSATEPLDLGCSSCGTPLHDQGGPVEILPFLYLGSAYHAARRDMLDALGITALLNVSSDCPNHFEGHYQYKCIPVEDNHKADISSWFMEAIEYIDAVKDCRGRVLVHCQAGISRSATICLAYLMMKKRVRLEEAFEFVKQRRSIISPNFSFMGQLLQFESQVLATSCAAEAASPSGPLRERGKTPATPTSQFVFSFPVSVGVHSAPSSLPYLHSPITTSPSC
modifications: full-length
In the case of B2, in data set [2], the solubility entry is “low” and the stability entry is listed as “low”.

B3: re-designed pk7: re-designed stable PTP active domain of pk7 (MKP2), amino acids 174-338, SEQ. ID. NO: 136 (protein)
chain: SATEPLDLGCSSCGTPLHDQGGPVEILPFLYLGSAYHAARRDMLDALGITALLNVSSDCPNHFEGHYQYKCIPVEDNHKADISSWFMEAIEYIDAVKDCRGRVLVHCQAGISRSATICLAYLMMKKRVRLEEAFEFVKQRRSIISPNFSFMGQLLQFESQVLATS
modifications: Amino acid sequence of PTP active domain pk7
As to B3, in data set [2], the solubility result is “high” and the stability entry is “high”.
